Data reported in article PMC10625600, “A TRIM21-based bioPROTAC highlights the therapeutic benefit of HuR degradation”.

B1: unlabelled Msi1 RNA (ssRNA)
RNA: GCUUUUAUUUAUUUUG
B2: Msi1-FITC RNA probe (ssRNA)
RNA: GCUUUUAUUUAUUUUG

Experiments:
[1] = biological target: T1, HuR full-length (UniProt Q15717 1-326); assay: competition fluorescence polarisation; 8 nM HuR, 8 nM Msi1-FITC probe N1 displaced; FP: 10 mM HEPES pH 7.4, 150 mM NaCl, 3 mM EDTA, 0.05% Tween-20; competition 5 min at room temperature; SPR: Biacore 8K, streptavidin chip, buffer not given in the material; details: protein: recombinant; tags: Avi-tag, TEV-cleavable His-tag; single-stranded
[2] = biological target: T1, HuR full-length; assay: fluorescence polarisation; 10 nM probe, 0-2000 nM HuR; FP: 10 mM HEPES pH 7.4, 150 mM NaCl, 3 mM EDTA, 0.05% Tween-20; competition 5 min at room temperature; SPR: Biacore 8K, streptavidin chip, buffer not given in the material; details: protein: recombinant; tags: Avi-tag, TEV-cleavable His-tag; label: 3' fluorescein (3FluorT; printed after the 3' G, may add a labelled T); single-stranded

T1 sequence (Q15717 whole entry): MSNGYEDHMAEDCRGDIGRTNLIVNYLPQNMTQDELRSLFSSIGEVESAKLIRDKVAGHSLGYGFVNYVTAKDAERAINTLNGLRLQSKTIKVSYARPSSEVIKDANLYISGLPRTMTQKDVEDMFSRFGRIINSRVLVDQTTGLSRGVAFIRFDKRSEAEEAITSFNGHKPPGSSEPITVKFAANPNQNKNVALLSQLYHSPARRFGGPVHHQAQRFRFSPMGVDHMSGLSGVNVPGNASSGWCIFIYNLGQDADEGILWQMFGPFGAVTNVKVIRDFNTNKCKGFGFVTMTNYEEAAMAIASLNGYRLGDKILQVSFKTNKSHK

Row | Binder | Ki [1] | Kd [2]
1 | B1 | 4 nM | 
2 | B2 |  | 3.7 nM
